This is an account of results in patent publication US20030152576A1 (published 2003).

B2: biotinylated recombinant HBsAg particles, which only contain S protein (b-rHBsAg) (other)
chain: MENITSGFLGPLLVLQAGFFLLTRILTIPQSLDSWWTSLNFLGGSPVCLGQNSQSPTSNHSPTSCPPICPGYRWMCLRRFIIFLFILLLCLIFLLVLLDYQGMLPVCPLIPGSTTTSTGPCKTCTTPAQGNSMFPSCCCTKPTDGNCTCIPIPSSWAFAKYLWEWASVRFSWLSLLVPFVQWFVGLSPTVWLSAIWMMWYWGPSLYSIVSPFIPLLPIFFCLWVYI
modifications: biotinylated on lysine residues (the three lysine residues which can become biotinylated all lie in the major antigenic region of the S protein; positions 122 and 141 are named)
notes: domain: S protein; Multimeric virus-like particle with lipid; also called biotinylated rHBsAg

The target of one test is human CD14 (human) (UniProt P08571). Kind of test: flow cytometry, hCD14-CHO cells, FITC-labelled mAb. On the technique in general: In flow cytometry, cells or beads pass a laser one at a time.
The next test has as its target mouse CD14 (mouse) (UniProt P10810). Nature of the test: flow cytometry, mCD14-CHO cells, FITC-labelled mAb.
The target of test [1] is B2. Kind of test: flow cytometry competition; b-rHBsAg pre-incubated with recombinant sCD14 in 2% HS-HBSS, then binding to monocytes of PBMC.
In test [2] the target is T1, human CD14 with amino acids 39, 40, 41, 43 and 44 substituted with alanine (mut6) (human, UniProt P08571 20-345).
T1 construct: whole, on cells; The positions count on the mature protein (add 19 for the precursor entry); also called CD14mut6; CHO-Mut6
T1 sequence (looked up): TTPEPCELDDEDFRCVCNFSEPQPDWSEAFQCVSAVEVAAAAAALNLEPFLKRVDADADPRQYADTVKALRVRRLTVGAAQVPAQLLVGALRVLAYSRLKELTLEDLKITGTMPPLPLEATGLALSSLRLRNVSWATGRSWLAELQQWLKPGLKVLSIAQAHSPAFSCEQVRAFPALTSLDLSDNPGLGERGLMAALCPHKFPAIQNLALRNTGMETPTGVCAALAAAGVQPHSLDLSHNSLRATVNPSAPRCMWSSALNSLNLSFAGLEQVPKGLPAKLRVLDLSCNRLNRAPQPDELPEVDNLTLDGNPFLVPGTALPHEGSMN
Kind of test: flow cytometry on CHO cells transfected with mut6, 2% HS-HBSS, Strep-PE.

Sequence of mouse CD14 (mouse) (P10810 16-336): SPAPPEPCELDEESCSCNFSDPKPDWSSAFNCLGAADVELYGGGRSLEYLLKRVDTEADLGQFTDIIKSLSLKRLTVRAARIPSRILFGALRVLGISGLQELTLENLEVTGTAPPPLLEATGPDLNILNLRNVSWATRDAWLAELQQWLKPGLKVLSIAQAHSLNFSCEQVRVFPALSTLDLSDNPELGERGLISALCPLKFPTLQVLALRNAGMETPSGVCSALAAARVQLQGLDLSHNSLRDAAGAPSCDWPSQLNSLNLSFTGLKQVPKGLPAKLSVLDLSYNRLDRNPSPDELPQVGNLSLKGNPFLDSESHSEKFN

As for “Mouse anti-human CD14 (clone M(P9)) (antibody)”, the Median Fluorescence in the test with human CD14 (human) is 502; in the test with mouse CD14 (mouse), 0.

As to “Mouse anti-human CD14 (clone My4) (antibody)”, the results for the Median Fluorescence with human CD14 (human) and with mouse CD14 (mouse) were 291 and 0.12, respectively.

For the molecule “Rat anti-mouse CD14-FITC (clone rmC5-3, IgG1) (antibody)”, the Median Fluorescence stood at 0 with human CD14 (human) and 24 with mouse CD14 (mouse).

B1: recombinant soluble CD14 (receptor)
chain: TTPEPCELDDEDFRCVCNFSEPQPDWSEAFQCVSAVEVEIHAGGLNLEPFLKRVDADADPRQYADTVKALRVRRLTVGAAQVPAQLLVGALRVLAYSRLKELTLEDLKITGTMPPLPLEATGLALSSLRLRNVSWATGRSWLAELQQWLKPGLKVLSIAQAHSPAFSCEQVRAFPALTSLDLSDNPGLGERGLMAALCPHKFPAIQNLALRNTGMETPTGVCAALAAAGVQPHSLDLSHNSLRATVNPSAPRCMWSSALNSLNLSFAGLEQVPKGLPAKLRVLDLSCNRLNRAPQPDELPEVDNLTLDGNPFLVPGTALPHEGSMNSGVVPACARSTLSVGVSGTLVL
notes: also called sCD14; recombinant sCD14
Broadly, the IC50 is the concentration needed to halve the response being measured. As to B1, the IC50 in test [1] is > 2.5 µg/mL.

B2: the binding result in test [2] is “no binding”.
